Results reported in publication PMC10980018.

Target: HKU5-20s trimeric ectodomain with 2P stabilizing mutations (merbecovirus HKU5-20s (host Pipistrellus abramus))
Test: cryo-EM structure

HKU5-20s trimeric ectodomain with 2P stabilizing mutations (domain or fragment)
stoichiometry N: 3
